Assay results: patent US20140011732A1
Non-standard residues stand in square brackets, D forms with d. No end group written: not given here. Aib = CC(C)(N)C(=O)O

B1: N-epsilon23-[2-(2-[2-(2-[2-(2-((R)-3-[1-(17-Carboxyheptadecanoylamino)piperidin-4-ylcarbonylamino]-3-(carboxypropionylamino)ethoxy)ethoxy]acetylamino)ethoxy]eth … (peptide)
peptide: H[Aib]EGTFTSDVSSYLEGKAAREFIAWLVRGRG
modifications: not fully specified (residue 17); printed as N-epsilon23-[2-(2-[2-(2-[2-(2-(R)-3-[1-(17-Carboxyheptadecanoylamino)piperidin-4-ylcarbonylamino]-3-(carboxypropionylamino)ethoxy)ethoxy]acetylamino)ethoxy]ethoxy)acetyl][Aib8,Arg26,Arg 34]GLP-1-(7-37)
B2: N-epsilon26-[(S)-4-Carboxy-4-({trans-4-[(19-carboxynonadecanoylamino)methyl]cyclohexanecarbonyl}amino)butyryl][Aib8,Arg34]GLP-1-(7-37) (peptide)
peptide: HAEGTFTSDVSSYLEGQAAKEFIAWLVRGRG
modifications: here or on the partner: Aib8; Lys26 N-epsilon carries the acyl side chain printed in the name; biotinylated

Columns and labels:
[1] = biological target: human serum albumin (HSA) (human) (UniProt P02768); experiment: competition SPA on biotinylated HSA, 125I acylated GLP-1 tracer
[2] = biological target: human serum albumin (HSA) (human), P02768; experiment: as above; conditions: remark: other sources report otherwise

Row | Binder | EC50 [1] [nM] | EC50 [2] [nM]
1 | B1 | 300 to 800 | 
2 | B2 |  | 300 to 800
